Laboratory results from patent US20080220446A1, “Method for Detecting and/or Removing Protein and/or Peptide Comprising a Cross-Beta Structure From an Aqueous Solution Comprising a Protein” (priority 2005, published 2008).

T1: factor XII (Homo sapiens, UniProt P00748)
T1 construct: purified human factor XII from plasma (Calbiochem); purchased Calbiochem; host or cells: human plasma
T1 sequence (P00748 20-615): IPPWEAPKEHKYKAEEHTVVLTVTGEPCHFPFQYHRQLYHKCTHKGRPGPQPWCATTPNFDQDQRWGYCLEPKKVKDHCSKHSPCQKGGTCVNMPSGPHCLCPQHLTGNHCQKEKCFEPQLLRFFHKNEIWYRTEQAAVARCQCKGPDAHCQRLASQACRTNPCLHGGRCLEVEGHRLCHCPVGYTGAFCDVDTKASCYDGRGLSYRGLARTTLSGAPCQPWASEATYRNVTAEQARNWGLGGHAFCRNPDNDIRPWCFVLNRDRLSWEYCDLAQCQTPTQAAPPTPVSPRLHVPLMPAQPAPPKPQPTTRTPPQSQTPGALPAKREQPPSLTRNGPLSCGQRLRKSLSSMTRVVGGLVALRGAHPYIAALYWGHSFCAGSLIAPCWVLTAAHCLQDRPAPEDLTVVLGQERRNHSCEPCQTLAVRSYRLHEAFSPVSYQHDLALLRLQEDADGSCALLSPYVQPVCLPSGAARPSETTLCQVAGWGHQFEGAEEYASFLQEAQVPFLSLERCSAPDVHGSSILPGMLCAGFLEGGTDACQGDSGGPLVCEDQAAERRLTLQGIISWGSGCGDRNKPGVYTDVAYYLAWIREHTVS

B1: β2GPI purified from fresh plasma: β2-glycoprotein I purified from fresh human plasma (protein)
chain: GRTCPKPDDLPFSTVVPLKTFYEPGEEITYSCKPGYVSRGGMRKFICPLTGLWPINTLKCTPRVCPFAGILENGAVRYTTFEYPNTISFSCNTGFYLNGADSAKCTEEGKWSPELPVCAPIICPPPSIPTFATLRVYKPSAGNNSLYRDTAVFECLPQHAMFGNDTITCTTHGNWTKLPECREVKCPFPSRPDNGFVNYPAKPTLYYKDKATFGCHDGYSLDGPEEIECTKLGNWSAMPSCKASCKVPVKKATVVYQGERVKIQEKFKNGMLHGDKVSFFCKNKEKKCSYTEDAQCIDGTIEVPKCFKEHSSLAFWKTDASDVKPC
B2: CL-β2gpi: β2gpi exposed to cardiolipin (protein)
chain: GRTCPKPDDLPFSTVVPLKTFYEPGEEITYSCKPGYVSRGGMRKFICPLTGLWPINTLKCTPRVCPFAGILENGAVRYTTFEYPNTISFSCNTGFYLNGADSAKCTEEGKWSPELPVCAPIICPPPSIPTFATLRVYKPSAGNNSLYRDTAVFECLPQHAMFGNDTITCTTHGNWTKLPECREVKCPFPSRPDNGFVNYPAKPTLYYKDKATFGCHDGYSLDGPEEIECTKLGNWSAMPSCKASCKVPVKKATVVYQGERVKIQEKFKNGMLHGDKVSFFCKNKEKKCSYTEDAQCIDGTIEVPKCFKEHSSLAFWKTDASDVKPC

Assays:
tPA [1] = biological target: T2, tPA (Homo sapiens, UniProt P00750); test: Plasminogen-activation assay (tPA activation, S-2251); assay type: biochemical; conditions: β2GPI preparations, 100 μg ml^−1
T2 sequence (P00750 36-562): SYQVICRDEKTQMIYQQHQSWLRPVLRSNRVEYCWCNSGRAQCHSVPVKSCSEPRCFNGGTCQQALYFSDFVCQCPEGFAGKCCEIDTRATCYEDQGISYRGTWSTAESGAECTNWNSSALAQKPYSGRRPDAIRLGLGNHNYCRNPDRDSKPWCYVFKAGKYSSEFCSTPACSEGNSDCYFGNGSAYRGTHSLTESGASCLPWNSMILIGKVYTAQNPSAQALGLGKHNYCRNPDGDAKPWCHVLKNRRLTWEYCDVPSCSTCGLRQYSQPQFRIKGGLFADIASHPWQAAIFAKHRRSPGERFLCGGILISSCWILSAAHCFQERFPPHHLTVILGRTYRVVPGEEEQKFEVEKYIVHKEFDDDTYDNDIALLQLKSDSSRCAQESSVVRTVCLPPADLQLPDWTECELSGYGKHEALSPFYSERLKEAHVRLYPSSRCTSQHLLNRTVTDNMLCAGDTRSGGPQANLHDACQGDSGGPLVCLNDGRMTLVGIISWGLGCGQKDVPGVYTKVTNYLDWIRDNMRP
Experimental: Plasmin (Pls) activity was assayed as described^16. Peptides and proteins that were tested for their stimulatory ability were regularly used at 100 μg ml^−1. […] Chromogenic substrate S-2251 (Chromogenix, Instrumentation Laboratory SpA, Milano, Italy) was used to measure Pls activity. Conversion of zymogen factor XII (#233490, Calbiochem, EMD Biosciences, Inc., San Diego, Calif.) to proteolytically active factor XII (factor XIIa) was assayed by measurement of the conversion of chromogenic substrate Chromozym-PK (Roche Diagnostics, Almere, The Netherlands) by kallikrein. Chromozym-PK was used at a concentration of 0.3 mM. […] The conversion of Chromozym-PK was recorded kinetically at 37° C. for at least 60 minutes. […]
Formulated protein therapeutics were obtained from the local hospital pharmacy and were used as supplied by the manufacturers. […] Enhancement in fluorescence of ThT and Congo red was measured with all formulated protein therapeutics. […]
(§1) To prepare structurally altered ovalbumin (OVA) with amyloid cross-β structures, purified OVA (Sigma, A-7641, lot 071k7094) was heated to 85° C. […] Native OVA (nOVA) and heat-denatured OVA (dOVA) were tested in the ThT fluorescence assay and in the Plg-activation assay. In the fluorescence assay and in the Plg-activation assay, 25 and 100 μg ml^−1 nOVA and dOVA were tested, respectively. […]

[2] = Thioflavin T fluorescence of protein solutions; assay type: physicochemical; conditions: after exposure to CL or DXS500k
Experimental: Fluorescence of ThT—protein/peptide adducts was measured as follows. […] Fluorescence was measured at 485 nm upon excitation at 435 nm. Background signals from buffer, buffer with ThT and protein/peptide solution without ThT were subtracted from corresponding measurements with protein solution incubated with ThT. Regularly, fluorescence of Aβ was used as a positive control, and fluorescence of FP10, a non-amyloid fibrin fragment^16, was used as a negative control. Fluorescence was measured in triplicate on a Hitachi F-4500 fluorescence spectrophotometer (Ltd., Tokyo, Japan).
Formulated protein therapeutics were obtained from the local hospital pharmacy and were used as supplied by the manufacturers. […] Lyophilized therapeutics were dissolved according to the manufacturers recommendations. GH, zinc-insulin, Cealb and gelatin were stored at −20, 4, room temperature, 37 and 65° C. Other protein therapeutics were only kept at 4° C., and assayed for the presence of cross-β structure at shown time points. Enhancement in fluorescence of ThT and Congo red was measured with all formulated protein therapeutics. […]
ThT fluorescence of β2GPI was measured as follows. […] In the ThT fluorescence assay, fluorescence of β2GPI in buffer, of CL or DXS500k in buffer, of buffer and ThT alone, and of β2GPI-CL adducts and β2GPI-DXS500k adducts, with or without ThT, was recorded as described above (section ThT fluorescence). In addition, TEM images were recorded with CL, β2GPI from human plasma, with or without CL, and with recombinant β2GPI, as described^5.
as §1
MSA (#126674, Calbiochem) was dissolved in 8 M urea, 100 mM Tris-HCl pH 8.2, at 10 mg ml^−1 final concentration. […] The presence of aggregates or fibrils was analyzed using TEM. […]

tPA [3] = biological target: T2, tPA; test: ELISA, binding of β2GPI to immobilized tPA
Experimental: (§2) Binding of purified human factor XII from plasma (Calbiochem) or of purified recombinant human tPA to β2GPI purified from human plasma, or to recombinant human β2GPI was tested in an ELISA. Ten μg of factor XII or tPA in PBS was coated onto wells of a Costar 2595 ELISA plate (Cambridge, USA) and incubated with concentration series of the two β2GPI preparations. Binding of β2GPI was assessed with monoclonal antibody 2B2^22.

factor XII = biological target: T1, factor XII; test: ELISA, binding of β2GPI to immobilized factor XII
Experimental: as §2

tPA [4] = biological target: T2, tPA; test: tPA/plasminogen activation assay; assay type: biochemical; conditions: β2gpi exposed to cardiolipin or alkylated, 100 μg/ml
Experimental: β2-GPI was reduced and alkylated as follows. Sixhundredforty μl of β2-GPI stock was mixed with 640 μl of 8 M Urea (cooled solution) in 0.1 M Tris pH-8.2. The solution was degassed with N2 gas for approximately 6 minutes. From a 1 M DTT stock 12.8 μl was added to the solution, mixed and incubated for 3 hours at room temperature. A 1 M Iodoacetamide (Sigma; I-6125) was prepared, of which 25.6 μl was added to the β2-GPI reaction mixture. The solution was subsequently dialysed against PBS. […] Signals obtained with alkyl-β2gpi are compared with those obtained with native β2gpi starting material and with positive control acid/heat denatured amyloid-like misfolded γ-globulins.
Exiqon Peptide Immobilizer plates were blocked for 1 hour with PBS, 1% Tween20 and rinsed twice with distilled water. The conversion of the chromogenic substrate S-2251 (Chromogenix, Italy) by plasmin was kinetically measured at 37° C. on a Spectramax340 microplate reader at a wavelength of 405 nm. […] Denatured γ-globulins (100 μg/ml) with amyloid-like structure was used as reference and positive control. Lyophilized γ-globulins (Sigma, Mo., USA) were dissolved in a 1(:)1 volume ratio of 1,1,1,3,3,3-hexafluoro-2-propanol and trifluoro-acetic acid and subsequently dried under air. […]
Protein therapeutics were obtained from the local hospital pharmacy and analyzed within the expiry limits as stated by the manufacturers.

Row | Molecule | stimulation of tPA-mediated conversion of Plg to Pls (tPA [1]) | ThT fluorescence signal [2] | binding to tPA (tPA [3]; listed as β2GPI purified from fresh human plasma) | binding to tPA (tPA [3]; listed as β2GPI purified from plasma) | binding to factor XII (factor XII) | ability to activate tPA/plasminogen (tPA [4])
1 | B1 | not | increased ThT fluorescence signal | not | does not bind | not | –
2 | B2 | – | – | – | – | – | accelerated
